This note sets out measurements from patent US12678474B2, “Screening of fixed-point coupling sites of cysteine-modified antibody-toxin conjugate (TDC)” (SICHUAN BAILI PHARMACEUTICAL CO. LTD., priority 2017, dated 2026).

Substitutions are numbered along the chain they refer to.

B1: 2A1-HC-Cys379ins: 2A1 antibody with cysteine inserted at heavy chain position 379 (SEQ ID NO: 38) (antibody)
heavy: DVQLQESGPSLVKPSQSLSLTCTVTGYSITSDFAWNWIRQFPGNKLEWMGYISYSGNTRYNPSLKSRISITRDTSKNQFFLQLNSVTIEDTATYYCVTAGRGFPYWGQGTLVTVSAASTKGPSVFPLAPSSKSTSGGTAALGCLVKDYFPEPVTVSWNSGALTSGVHTFPAVLQSSGLYSLSSVVTVPSSSLGTQTYICNVNHKPSNTKVDKRVEPKSCDKTHTCPPCPAPEFLGGPSVFLFPPKPKDTLMISRTPEVTCVVVDVSHEDPEVKFNWYVDGVEVHNAKTKPREEQYNSTYRVVSVLTVLHQDWLNGKEYKCKVSNKALPAPIEKTISKAKGQPREPQVYTLPPSRDELTKNQVSLTCLVKGFYPSDIAVEWECSNGQPENNYKTTPPVLDSDGSFFLYSKLTVDKSRWQQGNVFSCSVMHEALHNHYTQKSLSLSPG
light: DILMTQSPSSMSVSLGDTVSITCHSSQDINSNIGWLQQRPGKSFKGLIYHGTNLDDEVPSRFSGSGSGADYSLTISSLESEDFADYYCVQYAQFPWTFGGGTKLEIKRTVAAPSVFIFPPSDEQLKSGTASVVCLLNNFYPREAKVQWKVDNALQSGNSQESVTEQDSKDSTYSLSSTLTLSKADYEKHKVYACEVTHQGLSSPVTKSFNRGEC
B2: 2A1-HC-Cys255ins: 2A1 antibody with cysteine inserted at heavy chain position 255 (SEQ ID NO: 24) (antibody)
heavy: DVQLQESGPSLVKPSQSLSLTCTVTGYSITSDFAWNWIRQFPGNKLEWMGYISYSGNTRYNPSLKSRISITRDTSKNQFFLQLNSVTIEDTATYYCVTAGRGFPYWGQGTLVTVSAASTKGPSVFPLAPSSKSTSGGTAALGCLVKDYFPEPVTVSWNSGALTSGVHTFPAVLQSSGLYSLSSVVTVPSSSLGTQTYICNVNHKPSNTKVDKRVEPKSCDKTHTCPPCPAPEFLGGPSVFLFPPKPKDTLMISRTPECVTCVVVDVSHEDPEVKFNWYVDGVEVHNAKTKPREEQYNSTYRVVSVLTVLHQDWLNGKEYKCKVSNKALPAPIEKTISKAKGQPREPQVYTLPPSRDELTKNQVSLTCLVKGFYPSDIAVEWESNGQPENNYKTTPPVLDSDGSFFLYSKLTVDKSRWQQGNVFSCSVMHEALHNHYTQKSLSLSPG
light: B1 light
B3: 2A1-HC-Cys355ins: 2A1 antibody with cysteine inserted at heavy chain position 355 (SEQ ID NO: 32) (antibody)
heavy: DVQLQESGPSLVKPSQSLSLTCTVTGYSITSDFAWNWIRQFPGNKLEWMGYISYSGNTRYNPSLKSRISITRDTSKNQFFLQLNSVTIEDTATYYCVTAGRGFPYWGQGTLVTVSAASTKGPSVFPLAPSSKSTSGGTAALGCLVKDYFPEPVTVSWNSGALTSGVHTFPAVLQSSGLYSLSSVVTVPSSSLGTQTYICNVNHKPSNTKVDKRVEPKSCDKTHTCPPCPAPEFLGGPSVFLFPPKPKDTLMISRTPEVTCVVVDVSHEDPEVKFNWYVDGVEVHNAKTKPREEQYNSTYRVVSVLTVLHQDWLNGKEYKCKVSNKALPAPIEKTISKAKGQPREPQVYTLPPSRDELCTKNQVSLTCLVKGFYPSDIAVEWESNGQPENNYKTTPPVLDSDGSFFLYSKLTVDKSRWQQGNVFSCSVMHEALHNHYTQKSLSLSPG
light: B1 light
B4: 2A1-HC-Cys258ins: 2A1 antibody with cysteine inserted at heavy chain position 258 (SEQ ID NO: 26) (antibody)
heavy: B2 heavy with C258V, V259T, T260C
light: B1 light
B5: 2A1-HC-Cys354ins: 2A1 antibody with cysteine inserted at heavy chain position 354 (SEQ ID NO: 30) (antibody)
heavy: B3 heavy with L357C, C358L
light: B1 light
B6: 2A1-HC-Cys386ins: 2A1 antibody with cysteine inserted at heavy chain position 386 (SEQ ID NO: 40) (antibody)
heavy: B1 heavy with C382S, S383N, N384G, G385Q, Q386P, P387E, E388N, N389C
light: B1 light
B7: 2A1-HC-Cys357ins: 2A1 antibody with cysteine inserted at heavy chain position 357 (SEQ ID NO: 34) (antibody)
heavy: B3 heavy with C358T, T359K, K360C
light: B1 light
B8: 2A1-HC-Cys254ins: 2A1 antibody with cysteine inserted at heavy chain position 254 (SEQ ID NO: 22) (antibody)
heavy: B2 heavy with E257C, C258E
light: B1 light
B9: 2A1-HC-Cys259ins: 2A1 antibody with cysteine inserted at heavy chain position 259 (SEQ ID NO: 28) (antibody)
heavy: B2 heavy with C258V, V259T, T260C, C261V, V262C
light: B1 light

One assay has as its system EGFRwt-overexpressing human skin squamous cell carcinoma cell line A431. Put plainly: MTS cytotoxicity (cell viability) assay, A431. The class given is cell-based. The following applies: antibodies; 72 hours. How it is done:
(§1) TDC cytotoxic activity was determined via the following experimental procedure: TDC was added to EGFR-overexpressing or […]-expressing human tumor cell culture medium, and cell viability was determined after 72 hours of cell culture. Cell-based in vitro experiments were used to determine cell viability, cytotoxicity and programmed cell death induced by TDC constituted by the present invention.
(§2) In vitro efficacy of antibody-toxin conjugates was determined via a cell proliferation assay. A CellTiter ^96® AqueousOne Solution Cell was Proliferation Assay purchased commercially from Promega Corp. (Madison, WI). CellTiter ^96® Aqueous One Solution Cell Proliferation Assay (a) is a colorimetric method used to detect the number of living cells in cell proliferation and cytotoxicity experiments. The above reagent contains the novel tetrazole compound [3-(4,5-dimethylthiazol-2-yl)-5-(3-carboxymethoxyphenyl)-2-(4-sulfophenyl)-2H-tetrazolium, inner salt; MTS) as well as an electronic coupling agent (phenazine ethosulfate; PES). […] This convenient “single solution” model is an improvement on the first generation of the CellTiter ^96® Aqueous Assay, in which the electronic coupling agent PMS was supplied separately from the MTS solution. MTS (Owen's reagent) is reduced by cellular organisms into a colored formazan product, which can be directly dissolved in culture medium (FIG. 1). This conversion is likely facilitated by NADPH NADH produced by dehydrogenase present in metabolically active cells. For the assay, a small amount of CellTiter ^96® Aqueous One Solution Reagent is added directly to the medium present in the wells of the culture plate, after which incubation is performed for 1 to 4 hours, followed by reading of the absorbance value at 490 nm using a microplate reader.
(§3) The amount of formazan product detected at 490 nm is proportional to the number of viable cells in culture. Because the formazan product of MTS is soluble in tissue culture medium, CellTiter ^96® Aqueous One Solution Assay requires fewer steps than the MTT or INT methods. A431 (EGFR-overexpressing cells) and U87-[…] (an […] mutant stable cell line) were used in the present invention as an investigative system for performing in vitro efficacy assays. In 96-well plates, cells were plated at 6000 cells/well and 24 hours later, antibody spiking was carried out. […] Cell viability was assayed via MTS 72 hours after treatment.
Turning to B1, the IC50 was greater than 10 µM.
B2 returned an IC50 greater than 10 µM.
The same measure, in the same setting: next, B3: greater than 10 µM.
B4 registered a half-maximal inhibitory concentration (IC50) greater than 10 µM.
On to B5, for which the IC50 was greater than 10 µM.
In the case of B6, the IC50 was greater than 10 µM.
Turning to B7, the 50% inhibitory concentration (IC50) is greater than 10 µM.
For B8, the IC50 is greater than 10 µM.
As to B9, the half-inhibitory concentration (IC50) is greater than 10 µM.

A further assay has as its target T1, Recombinant EGFRVIII-His*6 antigen (Homo sapiens, UniProt P00533, DELINS30-297G).
T1 construct: His*6
Description: ELISA relative affinity for EGFRvIII. The class given is binding.
Conditions: not given
From the text:
Insertion Mutation Modification and Parent Antibody 2A1 for EGFRvIII • ELISA was used to compare the relative affinities of 2A1-LC-Cys110ins-mc-vc-PAB-MMAE TDC, 2A1-LC-Cys111ins-mc-vc-PAB-MMAE TDC, 2A1-LC-Cys142ins-mc-vc-PAB-MMAE TDC, 2A1-HC-Cys254ins-mc-vc-PAB-MMAE TDC, 2A1-HC-Cys255ins-mc-vc-PAB-MMAE TDC, 2A1-HC-Cys258ins-mc-vc-PAB-MMAE TDC, 2A1-HC-Cys259ins-mc-vc-PAB-MMAE TDC, 2A1-HC-Cys354ins-mc-vc-PAB-MMAE TDC, 2A1-HC-Cys355ins-mc-vc-PAB-MMAE TDC, 2A1-HC-Cys357ins-mc-vc-PAB-MMAE TDC, 2A1-HC-Cys378ins-mc-vc-PAB-MMAE TDC, 2A1-HC-Cys379ins-mc-vc-PAB-MMAE TDC, 2A1-HC-Cys386ins-mc-vc-PAB-MMAE TDC, 2A1-HC-Cys387ins-mc-vc-PAB-MMAE TDC, 2A1-HC-Cys410ins-mc-vc-PAB-MMAE TDC, and 2A1 for EGFRvIII. The specific process used was as follows:
Recombinant […]-His*6 antigen was used to coat plates; fish skin gelatin was used as a seal; dilution of each insertion mutant antibody was performed separately, up to a maximum concentration 10 μg/ml and a 4-fold gradient dilution was performed for a total of 11 concentrations; HRP-labeled secondary antibodies were used for incubation; TMB was used for development and absorption detection was performed at 450 nm.
For B1, the “Affinity for EGFRvIII relative to 2A1 (in words)” value is recorded as “maintained 2A1 affinity”.
Regarding B2, the “Affinity for EGFRvIII relative to 2A1 (in words)” value is on record as “maintained 2A1 affinity”.
Take B3: the “Affinity for EGFRvIII relative to 2A1 (in words)” value is listed as “maintained 2A1 affinity”.
Regarding B4, the “Affinity for EGFRvIII relative to 2A1 (in words)” value is “maintained 2A1 affinity”.
B5: the “Affinity for EGFRvIII relative to 2A1 (in words)” value is “maintained 2A1 affinity”.
On to B6, for which the “Affinity for EGFRvIII relative to 2A1 (in words)” value is reported as “maintained 2A1 affinity”.
For B8, the “Affinity for EGFRvIII relative to 2A1 (in words)” value was “maintained 2A1 affinity”.
The same measure, in the same setting: next, B9: “maintained 2A1 affinity”.

The assay is the same for the next values; noted with them: EGFRvIII-coated plates, A450, read-out: EC50 (nM), mutant antibody affinity.
Turning to B1, the EC50 is 0.0409 nM.
B2: the EC50 is 0.039 nM.
Regarding B3, the EC50 is 0.0415 nM.
Turning to B4, the EC50 was 0.0423 nM.
On the same count and under the same terms, next, B5: 0.0405 nM.
Consider B6, for which the EC50 came to 0.0435 nM.
As for B7, the concentration for a half-maximal effect (EC50) came out at 0.0403 nM.
For the molecule B8, the EC50 came to 0.0456 nM.
Still for that read-out and setting: next, B9: 0.0431 nM.

Another assay deals with EFGRvIII-overexpressing human glioma cell line U87-EGFRvIII. Description: MTS cytotoxicity (cell viability) assay, U87-EGFRvIII. The following applies: antibodies; 72 hours; read-out: IC50, U87MG-EGFRvIII (MTS). The class given is cell-based. How it is done:
as §1, §2, §3
Consider B1, for which the half-inhibitory concentration (IC50) was greater than 10 µM.
Turning to B2, the IC50 is greater than 10 µM.
As for B3, the half-maximal inhibitory concentration (IC50) was greater than 10 µM.
On to B4, for which the IC50 is greater than 10 µM.
As to B5, the IC50 was greater than 10 µM.
In the case of B6, the concentration for half-maximal inhibition (IC50) was greater than 10 µM.
Regarding B7, the IC50 is greater than 10 µM.
B8: the IC50 is greater than 10 µM.
Take B9: the half-inhibitory concentration (IC50) is greater than 10 µM.
